Source: the RNAGym collection of RNA variant scans (doi:10.7554/elife.80360)

B1: HDV Ribozyme (parent)
chain: GGCCGGCAUGGUCCCAGCCUCCUCGCUGGCGCCGGCUGGGCAACAUUCCGAGGGGACCGUCCCCUCGGUAAUGGCGAAUGGGACCCA

Variants of: B1
Experiment: self-cleavage, relative activity (ratio to wild type); higher = more cleavage; co-transcriptional
With C3A A42U the self-cleavage was 0.0773. G1C G81A showed a self-cleavage of 0. A8C G53U showed a self-cleavage of 0.831. U27A G39U showed a self-cleavage of 0.213. A42U G81C gave a self-cleavage of 0.0426. Variant C19U G38A has a self-cleavage of 0.0875. For C15G G34C, the self-cleavage was 0. A56U U72G showed a self-cleavage of 0.734. Variant A8C A83G has a self-cleavage of 0.646. With U27A A77G the self-cleavage was 1.15. With C44U C48A the self-cleavage was 0.779. For U72G G74U, the self-cleavage was 0.264. Variant C15A C86A has a self-cleavage of 0.665. Work on C63G U79G yielded a self-cleavage of 0.692. Work on C30U C62A yielded a self-cleavage of 0.562. Work on C7U A42U yielded a self-cleavage of 0.196. G40U G52A gave a self-cleavage of 0.513. Variant G11C C21U has a self-cleavage of 0.156. With A8G G35C the self-cleavage was 0.0426. For G59U G82U, the self-cleavage was 0.554. Variant G2C G28A has a self-cleavage of 0.0475. C19A G31C showed a self-cleavage of 0.141. G29U G54A gave a self-cleavage of 0.189. Work on C41G G52U yielded a self-cleavage of 0.554. Variant C14A A78G has a self-cleavage of 0.0519. C49A G55C showed a self-cleavage of 0.927. In the case of C26U G31A, the self-cleavage is reported as 0.819. With G31U G52C the self-cleavage was 0.35. G6C G31A showed a self-cleavage of 0.277. In the case of C44U C57A, the self-cleavage is reported as 0.672. Variant A43G C48G has a self-cleavage of 0.719. G59A C84G showed a self-cleavage of 0.597. For A16C G40C, the self-cleavage was 0.201. For C14G C26G, the self-cleavage was 0.692. Work on C13A G81U yielded a self-cleavage of 0.22. Variant G6A C32A has a self-cleavage of 0.277. Variant C14G C44U has a self-cleavage of 0.208. G1U A87U gave a self-cleavage of 0.507. Work on G31A G82U yielded a self-cleavage of 0.0715. Work on C26A G28C yielded a self-cleavage of 0.0791. Variant U23G has a self-cleavage of 0.731. In the case of C3A U69C, the self-cleavage is reported as 0.665. G34A U65G showed a self-cleavage of 0.178. With A8G A70C the self-cleavage was 0.519. G34A A56U showed a self-cleavage of 0.256. With G52U G73A the self-cleavage was 0.546. Variant G25U C75U has a self-cleavage of 0.162. G81A gave a self-cleavage of 0.403. Work on A16U C44G yielded a self-cleavage of 0.604. For A77G A83G, the self-cleavage was 0.906. Variant G40U A77C has a self-cleavage of 0.145. A70G G74C showed a self-cleavage of 0.107. U12C C48A showed a self-cleavage of 0.762. C7U U12A showed a self-cleavage of 0.35. Variant C3U C24G has a self-cleavage of 0.0782. With C7U G74A the self-cleavage was 0.204. C48U G50U showed a self-cleavage of 0.742. G5U A78U showed a self-cleavage of 0.0723. For G29U G52U, the self-cleavage was 0.0875. For U65G A77G, the self-cleavage was 0.831. For G25C G74U, the self-cleavage was 0.108. G1A U27G showed a self-cleavage of 0. C36A A51C gave a self-cleavage of 0.277. C58G A77C gave a self-cleavage of 0.361. Work on C18U C36A yielded a self-cleavage of 0.0739. For G53C U65C, the self-cleavage was 0.772. Work on A45U A70C yielded a self-cleavage of 0.95. Work on G67A G76A yielded a self-cleavage of 0.975. Variant G67C C84U has a self-cleavage of 0.523. U60C A77G showed a self-cleavage of 0.831. C36G U69G gave a self-cleavage of 0.0554. For C57U C75U, the self-cleavage was 0.188. For U23G C58A, the self-cleavage was 0.877. Variant U46C U69A has a self-cleavage of 0.918. C18U G31A gave a self-cleavage of 0.0702. Work on C26A U69A yielded a self-cleavage of 0.985. For C24A C64A, the self-cleavage was 0.803. Work on G31U U37G yielded a self-cleavage of 0.107. G34U C66G showed a self-cleavage of 0.164. Work on C75G A77U yielded a self-cleavage of 0.213. With G17C C33U the self-cleavage was 0.0475. For U69C G80A, the self-cleavage was 0.305. A8C G10C showed a self-cleavage of 0.623. In the case of C22U G80A, the self-cleavage is reported as 0.113. Work on C36U G39A yielded a self-cleavage of 0. In the case of C22G A87G, the self-cleavage is reported as 0.106. C15U U72A gave a self-cleavage of 0.485. Work on G28U G40U yielded a self-cleavage of 0.0277. For G39U C41A, the self-cleavage was 0.719. With C24G C85A the self-cleavage was 0.141. G39U A83G showed a self-cleavage of 0.444. Work on C33A A45G yielded a self-cleavage of 0.0536. Variant G6C C57G has a self-cleavage of 0.396. G39C A77G showed a self-cleavage of 0.243. Variant U12C A87U has a self-cleavage of 0.396. G6C C24A gave a self-cleavage of 0.138. U12A G67C gave a self-cleavage of 0.244. For G67A A83U, the self-cleavage was 0.359. In the case of G17C A71G, the self-cleavage is reported as 0.475. C18A C62U showed a self-cleavage of 0.264. G34C C63U showed a self-cleavage of 0.287. For C22G G38U, the self-cleavage was 0.117. With G29A U37G the self-cleavage was 0.0723. Variant U20A U47A has a self-cleavage of 0.104. For G1C C18G, the self-cleavage was 0. With U46G C49G the self-cleavage was 0.465. Variant C13G A78C has a self-cleavage of 0.0811. Variant A8U C19G has a self-cleavage of 0.106. For A43G U46C, the self-cleavage was 0.443. Variant C63A A70C has a self-cleavage of 0.883. With U46C C85G the self-cleavage was 0.675. With C57A A87U the self-cleavage was 1.13. C19U G73C showed a self-cleavage of 0.0479. C36U G55A gave a self-cleavage of 0.612. In the case of A16G C58U, the self-cleavage is reported as 0.962. G38U U46A showed a self-cleavage of 0.106. For U20G C49U, the self-cleavage was 0.185. Variant C4U U69G has a self-cleavage of 0.831. Variant C26A G35U has a self-cleavage of 0.619. G34C C41G showed a self-cleavage of 0.107. For C3U G29A, the self-cleavage was 0.0154. Variant G11C A83G has a self-cleavage of 0.123. Variant U9A G82C has a self-cleavage of 0.332. With C32U G67A the self-cleavage was 0.857. In the case of G76C U79A, the self-cleavage is reported as 0.649. With G28C A45U the self-cleavage was 0.142. Variant G5C U65A has a self-cleavage of 0.246. G38C G81U gave a self-cleavage of 0.0779. Variant G17U G68A has a self-cleavage of 0.478. G17A C48A showed a self-cleavage of 0.506. G5C C14U gave a self-cleavage of 0.506. A42U U79C gave a self-cleavage of 0.0216. Variant A42C U46C has a self-cleavage of 0.214. In the case of G2A C85G, the self-cleavage is reported as 0.217. Variant A51U A78G has a self-cleavage of 0.532. Variant C32A C63U has a self-cleavage of 0.332. A45C A56C showed a self-cleavage of 0.712. Variant C49A U65G has a self-cleavage of 0.539. Work on U37A G53C yielded a self-cleavage of 0.162. Variant G50U A51C has a self-cleavage of 0.889. With G28A G82C the self-cleavage was 0.0959. Work on G40A G74A yielded a self-cleavage of 0.726. For G28U G29A, the self-cleavage was 0.0755. G5C G74A gave a self-cleavage of 0.0898. A56C G82C gave a self-cleavage of 0.306. U12G C75G gave a self-cleavage of 0. With A45U C49U the self-cleavage was 0.706. In the case of G1U G17C, the self-cleavage is reported as 0.341. For A42C C85A, the self-cleavage was 0.18. Work on G6C G35A yielded a self-cleavage of 0.0755. Work on C24A A71U yielded a self-cleavage of 0.731. C18A U23G gave a self-cleavage of 0.155. In the case of A45U A87U, the self-cleavage is reported as 0.734. In the case of C66U U69A, the self-cleavage is reported as 0.831. Work on U23C C44G yielded a self-cleavage of 0.185. In the case of C26G C61A, the self-cleavage is reported as 1.12. With G34A A51C the self-cleavage was 0.193. Work on G59U C64A yielded a self-cleavage of 0.899. U9C U12A gave a self-cleavage of 0.511. For C14G C21G, the self-cleavage was 0.0449. Variant C58G G67A has a self-cleavage of 1.28. Work on G2C A42G yielded a self-cleavage of 0.13. For C4A C61G, the self-cleavage was 0.193. Work on C7A U65A yielded a self-cleavage of 0.356. C13G G31U gave a self-cleavage of 0.0405. Variant A16U C57A has a self-cleavage of 1.17. Variant C30U G68U has a self-cleavage of 0.594.
